Experiment [1] concerns the target T1, α4β1 integrin (UniProt P13612 34-1032; P05556 21-798).
T1 construct: whole, on cells; Endogenous integrin on the J6 and HL60 cell lines; adhesion run with 0.2 mM MnCl2 (and TPA for HL60); also called α4 integrin on J6 and HL60 cells
The experiment in a line: adhesion of J6 and HL60 cells to coated GST fusion with function blocking antibodies.
Experimental: Cells were incubated for 35 minutes at 37° C. in the presence of or absence of various function blocking anti-integrin antibodies at 10 μg/ml. To prebind the antibodies cells were preincubated on ice for 10 minutes before being moved to 37° C. Each data point represents the mean±SD of duplicate points. […] To stimulate α4β1 binding to OPN, 50 ng/ml TPA was also included. Cells were incubated for 35 minutes at 37° C. in the presence or absence of various function blocking anti-integrin antibodies at 10 μg/ml. To prebind the antibodies cells were preincubated on ice for 10 minutes before being moved to 37° C. Each data point represents the mean±SD of duplicate points.

Experiment [2] addresses T1, α4β1 integrin. The experiment in a line: J6 cell adhesion to coated GST fusion, with and without BIO1211.
Experiment [3] addresses T2, α5β1 integrin (UniProt P08648 42-1049; P05556 21-798).
T2 construct: whole, on cells; Endogenous integrin on J6 cells
The experiment can be described thus: J6 cell adhesion to coated GST fusion that is left in the presence of BIO1211.

The target in experiment [4] is T2, α5β1 integrin. The experiment can be described thus: J6 cell adhesion to coated GST fusion in the presence of BIO1211.

T1 sequence (P13612 34-1032, chain 1 of 2): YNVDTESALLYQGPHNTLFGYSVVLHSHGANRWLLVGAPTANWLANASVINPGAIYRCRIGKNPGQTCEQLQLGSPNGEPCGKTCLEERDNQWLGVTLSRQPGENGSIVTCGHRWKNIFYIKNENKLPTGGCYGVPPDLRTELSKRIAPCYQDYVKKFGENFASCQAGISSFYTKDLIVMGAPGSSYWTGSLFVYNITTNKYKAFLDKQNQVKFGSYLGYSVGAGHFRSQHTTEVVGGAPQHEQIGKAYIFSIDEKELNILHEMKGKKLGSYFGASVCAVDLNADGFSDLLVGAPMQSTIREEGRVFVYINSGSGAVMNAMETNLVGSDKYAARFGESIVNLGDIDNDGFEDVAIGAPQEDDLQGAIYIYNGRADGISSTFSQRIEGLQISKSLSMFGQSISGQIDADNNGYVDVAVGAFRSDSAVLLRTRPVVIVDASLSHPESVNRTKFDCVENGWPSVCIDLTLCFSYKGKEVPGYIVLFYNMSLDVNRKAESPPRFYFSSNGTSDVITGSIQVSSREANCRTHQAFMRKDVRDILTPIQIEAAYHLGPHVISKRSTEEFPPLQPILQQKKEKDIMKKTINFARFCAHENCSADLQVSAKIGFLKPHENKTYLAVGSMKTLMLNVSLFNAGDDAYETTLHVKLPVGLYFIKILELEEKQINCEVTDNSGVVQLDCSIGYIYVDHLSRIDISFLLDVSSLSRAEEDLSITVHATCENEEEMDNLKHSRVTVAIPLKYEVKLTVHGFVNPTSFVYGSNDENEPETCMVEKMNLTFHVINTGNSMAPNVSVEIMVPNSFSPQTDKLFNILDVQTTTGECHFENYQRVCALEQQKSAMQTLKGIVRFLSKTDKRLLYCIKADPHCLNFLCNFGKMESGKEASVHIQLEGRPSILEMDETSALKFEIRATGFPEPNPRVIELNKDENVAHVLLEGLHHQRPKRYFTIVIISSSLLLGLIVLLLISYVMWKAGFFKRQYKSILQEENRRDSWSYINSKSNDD
T1 sequence (P05556 21-798, chain 2 of 2): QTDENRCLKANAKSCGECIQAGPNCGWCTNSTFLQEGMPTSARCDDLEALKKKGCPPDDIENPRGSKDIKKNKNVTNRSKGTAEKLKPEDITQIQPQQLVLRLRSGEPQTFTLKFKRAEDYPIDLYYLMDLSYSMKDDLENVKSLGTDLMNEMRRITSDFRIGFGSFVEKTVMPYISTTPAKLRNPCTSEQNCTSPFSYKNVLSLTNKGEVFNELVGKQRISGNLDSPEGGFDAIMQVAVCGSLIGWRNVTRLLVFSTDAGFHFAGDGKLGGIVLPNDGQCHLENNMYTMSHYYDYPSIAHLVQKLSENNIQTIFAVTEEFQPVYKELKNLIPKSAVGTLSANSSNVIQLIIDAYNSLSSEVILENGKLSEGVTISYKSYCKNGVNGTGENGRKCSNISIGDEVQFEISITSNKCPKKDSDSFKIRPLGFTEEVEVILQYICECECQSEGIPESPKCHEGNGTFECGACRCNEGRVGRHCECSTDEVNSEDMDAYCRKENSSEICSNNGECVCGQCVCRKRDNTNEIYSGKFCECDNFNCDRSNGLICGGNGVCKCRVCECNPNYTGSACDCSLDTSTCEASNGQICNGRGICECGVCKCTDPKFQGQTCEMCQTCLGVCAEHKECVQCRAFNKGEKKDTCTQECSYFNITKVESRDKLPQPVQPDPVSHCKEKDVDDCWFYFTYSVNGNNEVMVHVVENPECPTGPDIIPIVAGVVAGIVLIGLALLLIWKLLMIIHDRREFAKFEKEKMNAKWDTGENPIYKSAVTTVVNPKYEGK
T2 sequence (P08648 42-1049, chain 1 of 2): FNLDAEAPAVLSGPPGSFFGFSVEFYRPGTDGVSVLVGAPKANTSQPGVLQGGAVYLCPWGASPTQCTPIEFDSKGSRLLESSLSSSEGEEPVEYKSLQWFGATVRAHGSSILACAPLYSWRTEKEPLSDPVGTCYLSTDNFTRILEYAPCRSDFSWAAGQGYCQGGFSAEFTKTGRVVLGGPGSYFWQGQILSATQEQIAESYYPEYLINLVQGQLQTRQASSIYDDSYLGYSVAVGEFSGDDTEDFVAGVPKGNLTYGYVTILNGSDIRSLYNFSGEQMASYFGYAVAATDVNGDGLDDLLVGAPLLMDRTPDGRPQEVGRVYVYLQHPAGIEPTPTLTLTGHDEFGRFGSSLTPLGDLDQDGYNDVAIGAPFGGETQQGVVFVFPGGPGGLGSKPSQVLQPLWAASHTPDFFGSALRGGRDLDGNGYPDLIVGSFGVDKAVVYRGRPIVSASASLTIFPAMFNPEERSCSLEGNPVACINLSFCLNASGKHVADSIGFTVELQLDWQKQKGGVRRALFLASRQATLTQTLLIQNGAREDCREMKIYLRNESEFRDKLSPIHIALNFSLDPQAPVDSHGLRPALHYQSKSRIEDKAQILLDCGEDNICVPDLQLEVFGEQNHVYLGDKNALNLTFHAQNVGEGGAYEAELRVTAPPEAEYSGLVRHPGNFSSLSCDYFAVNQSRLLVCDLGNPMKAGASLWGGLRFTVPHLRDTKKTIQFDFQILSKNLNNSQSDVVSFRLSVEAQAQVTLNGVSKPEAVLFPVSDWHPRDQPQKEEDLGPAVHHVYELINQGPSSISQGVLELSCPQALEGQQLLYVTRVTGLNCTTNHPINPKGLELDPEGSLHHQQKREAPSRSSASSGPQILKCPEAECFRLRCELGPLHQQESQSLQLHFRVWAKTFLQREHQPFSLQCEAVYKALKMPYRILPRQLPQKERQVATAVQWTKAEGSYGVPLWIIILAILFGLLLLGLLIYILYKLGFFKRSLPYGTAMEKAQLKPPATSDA
T2 sequence (P05556 21-798, chain 2 of 2): as the sequence (P05556 21-798, chain 2 of 2) above

B1: GST fusion protein representing intact osteopontin (aa17-314) (ligand)
chain: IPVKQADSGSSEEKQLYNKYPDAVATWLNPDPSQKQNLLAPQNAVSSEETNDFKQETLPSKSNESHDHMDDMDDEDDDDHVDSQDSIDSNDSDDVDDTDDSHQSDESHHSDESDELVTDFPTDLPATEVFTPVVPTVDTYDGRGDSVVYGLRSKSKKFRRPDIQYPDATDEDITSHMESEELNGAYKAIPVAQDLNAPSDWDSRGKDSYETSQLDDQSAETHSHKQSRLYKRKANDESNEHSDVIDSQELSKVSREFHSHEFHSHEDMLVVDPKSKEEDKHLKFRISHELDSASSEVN
notes: Expressed in E. coli UT5600; coated on plates; also called intact OPN; full length OPN; not shown: GST carrier and the linker of the modified pGEX-2T vector
Consider B1, for which the binding result with α4β1 integrin [1] is “binds”.

B2: GST fusion protein of thrombin cleaved OPN (aa17-168) (ligand)
chain: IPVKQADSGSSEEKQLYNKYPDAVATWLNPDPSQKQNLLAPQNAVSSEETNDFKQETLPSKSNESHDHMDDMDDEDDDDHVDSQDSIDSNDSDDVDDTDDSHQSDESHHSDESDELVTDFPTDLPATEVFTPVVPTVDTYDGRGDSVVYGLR
notes: Stop codon after aa168, so that Arg168 is the free C-terminus; also called thrombin cleaved fragment; not shown: GST carrier and the linker of the modified pGEX-2T vector
Consider B2, for which the binding result with α4β1 integrin [2] and with α5β1 integrin [3] was “binds” each time.

B3: GST fusion protein of OPN aa125-168 (ligand)
chain: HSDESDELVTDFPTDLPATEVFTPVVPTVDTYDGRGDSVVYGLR
notes: not shown: GST carrier and the linker of the modified pGEX-2T vector
Consider B3, for which the binding result with α4β1 integrin [2] and with α5β1 integrin [4] was “binds” throughout.

(Values after patent publication US20030186325A1 (GlaxoSmithKline, published 2003).)
